T1: Soluble DcR2 protein (R&D Systems Catalog #633-TR-100) (UniProt Q9UBN6 56-211, limits assumed)
T1 construct: Coated on the ELISA plate at 2 ug/mL; also called TRAILR4; decoy receptor DcR2
T1 sequence (looked up): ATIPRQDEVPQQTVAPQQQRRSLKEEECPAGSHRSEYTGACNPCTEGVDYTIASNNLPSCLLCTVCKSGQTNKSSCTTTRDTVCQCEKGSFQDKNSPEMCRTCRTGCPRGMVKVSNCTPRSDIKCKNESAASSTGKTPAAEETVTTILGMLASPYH

T2: Soluble DR4 protein (R&D Systems Catalog #347-DR-100/CF) (human, UniProt O00220 24-239, limits assumed)
T2 construct: Coated on the ELISA plate at 2 ug/mL; also called TRAILR1; Apo2
T2 sequence (looked up): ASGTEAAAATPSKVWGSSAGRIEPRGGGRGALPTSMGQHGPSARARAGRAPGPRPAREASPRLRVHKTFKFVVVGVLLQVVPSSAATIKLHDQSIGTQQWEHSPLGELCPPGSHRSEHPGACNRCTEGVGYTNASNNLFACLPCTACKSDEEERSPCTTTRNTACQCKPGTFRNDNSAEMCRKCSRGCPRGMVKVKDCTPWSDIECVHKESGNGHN

T3: Soluble DcR1 protein (R&D Systems Catalog #630-TR-100/CF) (UniProt O14798 26-221, limits assumed)
T3 construct: Coated on the ELISA plate at 2 ug/mL; also called TRAILR3; decoy receptor DcR1
T3 sequence (looked up): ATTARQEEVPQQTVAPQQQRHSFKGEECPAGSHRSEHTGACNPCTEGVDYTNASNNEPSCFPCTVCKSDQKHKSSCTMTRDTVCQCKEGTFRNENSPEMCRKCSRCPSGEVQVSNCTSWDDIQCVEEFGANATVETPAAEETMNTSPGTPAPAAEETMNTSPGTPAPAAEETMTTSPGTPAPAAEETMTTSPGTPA


Columns and labels:
Test in all cases: ELISA as in Example 2, receptor coated on the plate
[1] = target: T1, Soluble DcR2 protein (R&D Systems …)
Experimental: (§1) DR4 or decoy receptors DcR1 and DcR2. Soluble DRS, DR4, DcR1, or DcR2 protein (R&D Systems Catalog #631-T2-100/CF, 347-DR-100/CF, 630-TR-100/CF, 633-TR-100 respectively) were coated on an ELISA plate at 2 μg/mL in 100 mM NaHCO₃ pH 9.5 overnight at 4° C. A solution of 2% BSA in PBS was used for the blocking and antibody incubation steps. The plate was blocked for 1 hour at room temperature, then incubated with mouse anti-human DRS mAb (Acris Antibodies Catalog #AM31206AF-N) for 1 hour at room temperature. anti-DRS mAb was 3-fold serially diluted to concentrations ranging from 1 to 200 ng/mL. After washing 3 times with PBS plus 0.05% Tween-20, the plate was incubated with rat anti-mouse kappa-HRP (Southern Biotech Catalog #1180-05) for 1 hour at room temperature, protected from light. After washing 3 times with PBS plus 0.05% Tween-20, the plate was incubated with TMB substrate (BD Biosciences Catalog #555214) for 20 minutes at room temperature. The reaction was stopped with 1M H₂SO₄ and absorbance at 450nm was determined using a microtiter plate reader.
(§2) Biotech Catalog #9180-05) or 1:6000 Mouse Anti-Human Kappa-HRP (Southern Biotech Catalog #9230-05) was used for detection.

[2] = target: T2, Soluble DR4 protein (R&D Systems …)
Experimental: as §1, §2

[3] = target: T3, Soluble DcR1 protein (R&D Systems …)
Experimental: as §1, §2

| binding result [1] | binding result [2] | binding result [3] | Binder |
| --- | --- | --- | --- |
| no binding | no binding | no binding | Anti-DR5 mAb #2, IgG version (antibody, V domains shown, Human IgG; variable domains put into proprietary IgG vectors (Aragen Biosciences, Lake Pharma); also called DR5 MAb IgG #2; Anti-DRS mAb #2 IgG) VH: QVQLQESGPGLVKPSQTLSLTCTVSGGSISSGDYFWSWIRQLPGKGLECIGHIHNSGTTYYNPSLKSRVTISVDTSKKQFSLRLSSVTAADTAVYYCARDRGGDYYYGMDVWGQGTTVTVSS VL: EIVLTQSPGTLSLSPGERATLSCRASQGISRSYLAWYQQKPGQAPSLLIYGASSRATGIPDRFSGSGSGTDFTLTISRLEPEDFAVYYCQQFGSSPWTFGQGTKVEIK |
| no binding | no binding | no binding | Anti-DR5 mAb #2, pentameric IgM-J chain version (antibody, V domains shown, Pentameric IgM with J chain; variable domains put into proprietary IgM vectors; also called DR5 MAb IgM #2; IgM Anti-DR5 mAb #2) VH: QVQLQESGPGLVKPSQTLSLTCTVSGGSISSGDYFWSWIRQLPGKGLECIGHIHNSGTTYYNPSLKSRVTISVDTSKKQFSLRLSSVTAADTAVYYCARDRGGDYYYGMDVWGQGTTVTVSS VL: EIVLTQSPGTLSLSPGERATLSCRASQGISRSYLAWYQQKPGQAPSLLIYGASSRATGIPDRFSGSGSGTDFTLTISRLEPEDFAVYYCQQFGSSPWTFGQGTKVEIK |

Source: patent US20170320955A1 (IGM BIOSCIENCES A S, published 2017)
